Source: publication PMC3050627

Target: His-MAFB (UniProt Q9Y5Q3 1-323)
Assay: EMSA

Chain of His-MAFB (Q9Y5Q3 whole entry): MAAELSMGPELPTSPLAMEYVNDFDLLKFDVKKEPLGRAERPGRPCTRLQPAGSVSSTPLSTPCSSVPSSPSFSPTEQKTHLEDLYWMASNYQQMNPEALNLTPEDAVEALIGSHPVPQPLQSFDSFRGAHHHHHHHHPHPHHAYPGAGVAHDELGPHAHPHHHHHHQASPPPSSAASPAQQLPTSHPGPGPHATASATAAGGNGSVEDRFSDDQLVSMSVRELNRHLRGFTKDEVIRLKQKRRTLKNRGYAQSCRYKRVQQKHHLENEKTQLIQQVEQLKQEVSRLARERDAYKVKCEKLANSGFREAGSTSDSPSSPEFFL

| Binder | binding result |
| --- | --- |
| MARE (dsDNA) DNA 1: CATTTCTGCTGACTCAGCAACTTTA DNA 2: TAAAGTTGCTGAGTCAGCAGAAATG | binds |
| P31 (PRDIII-PRDI) (dsDNA) DNA 1: GAAAACTGAAAGGGAGAAGTGAAAGTG DNA 2: CACTTTCACTTCTCCCTTTCAGTTTTC | no binding |
